Source: PMC10540216, “Activity Guided Azide-methyllysine Photo-trapping for Substrate Profiling of Lysine Demethylases” (Journal of the American Chemical Society, 2023)

B1: YTDC2_HUMAN (protein, UniProt Q9H6S0 1-1430, looked up)
3'-5' RNA helicase YTHDC2: MSRPSSVSPRQPAPGGGGGGGPSPCGPGGGGRAKGLKDIRIDEEVKIAVNIALERFRYGDQREMEFPSSLTSTERAFIHRLSQSLGLVSKSKGKGANRYLTVKKKDGSETAHAMMTCNLTHNTKHAVRSLIQRFPVTNKERTELLPKTERGNVFAVEAENREMSKTSGRLNNGIPQIPVKRGESEFDSFRQSLPVFEKQEEIVKIIKENKVVLIVGETGSGKTTQIPQFLLDDCFKNGIPCRIFCTQPRRLAAIAVAERVAAERRERIGQTIGYQIRLESRVSPKTLLTFCTNGVLLRTLMAGDSTLSTVTHVIVDEVHERDRFSDFLLTKLRDLLQKHPTLKLILSSAALDVNLFIRYFGSCPVIYIQGRPFEVKEMFLEDILRTTGYTNKEMLKYKKEKQQEEKQQTTLTEWYSAQENSFKPESQRQRTVLNVTDEYDLLDDGGDAVFSQLTEKDVNCLEPWLIKEMDACLSDIWLHKDIDAFAQVFHLILTENVSVDYRHSETSATALMVAAGRGFASQVEQLISMGANVHSKASNGWMALDWAKHFGQTEIVDLLESYSATLEFGNLDESSLVQTNGSDLSAEDRELLKAYHHSFDDEKVDLDLIMHLLYNICHSCDAGAVLIFLPGYDEIVGLRDRILFDDKRFADSTHRYQVFMLHSNMQTSDQKKVLKNPPAGVRKIILSTNIAETSITVNDVVFVIDSGKVKEKSFDALNFVTMLKMVWISKASAIQRKGRAGRCRPGICFRLFSRLRFQNMLEFQTPELLRMPLQELCLHTKLLAPVNCPIADFLMKAPEPPPALIVRNAVQMLKTIDAMDTWEDLTELGYHLADLPVEPHLGKMVLCAVVLKCLDPILTIACTLAYRDPFVLPTQASQKRAAMLCRKRFTAGAFSDHMALLRAFQAWQKARSDGWERAFCEKNFLSQATMEIIIGMRTQLLGQLRASGFVRARGGGDIRDVNTNSENWAVVKAALVAGMYPNLVHVDRENLVLTGPKEKKVRFHPASVLSQPQYKKIPPANGQAAAIKALPTDWLIYDEMTRAHRIANIRCCSAVTPVTILVFCGPARLASNALQEPSSFRVDGIPNDSSDSEMEDKTTANLAALKLDEWLHFTLEPEAASLLLQLRQKWHSLFLRRMRAPSKPWSQVDEATIRAIIAVLSTEEQSAGLQQPSGIGQRPRPMSSEELPLASSWRSNNSRKSSADTEFSDECTTAERVLMKSPSPALHPPQKYKDRGILHPKRGTEDRSDQSSLKSTDSSSYPSPCASPSPPSSGKGSKSPSPRPNMPVRYFIMKSSNLRNLEISQQKGIWSTTPSNERKLNRAFWESSIVYLVFSVQGSGHFQGFSRMSSEIGREKSQDWGSAGLGGVFKVEWIRKESLPFQFAHHLLNPWNDNKKVQISRDGQELEPLVGEQLLQLWERLPLGEKNTTD
B2: SAFB1_HUMAN (protein, UniProt Q15424 2-915, looked up)
Scaffold attachment factor B1: AETLSGLGDSGAAGAAALSSASSETGTRRLSDLRVIDLRAELRKRNVDSSGNKSVLMERLKKAIEDEGGNPDEIEITSEGNKKTSKRSSKGRKPEEEGVEDNGLEENSGDGQEDVETSLENLQDIDIMDISVLDEAEIDNGSVADCVEDDDADNLQESLSDSRELVEGEMKELPEQLQEHAIEDKETINNLDTSSSDFTILQEIEEPSLEPENEKILDILGETCKSEPVKEESSELEQPFAQDTSSVGPDRKLAEEEDLFDSAHPEEGDLDLASESTAHAQSSKADSLLAVVKREPAEQPGDGERTDCEPVGLEPAVEQSSAASELAEASSEELAEAPTEAPSPEARDSKEDGRKFDFDACNEVPPAPKESSTSEGADQKMSSPEDDSDTKRLSKEEKGRSSCGRNFWVSGLSSTTRATDLKNLFSKYGKVVGAKVVTNARSPGARCYGFVTMSTAEEATKCINHLHKTELHGKMISVEKAKNEPVGKKTSDKRDSDGKKEKSSNSDRSTNLKRDDKCDRKDDAKKGDDGSGEKSKDQDDQKPGPSERSRATKSGSRGTERTVVMDKSKGVPVISVKTSGSKERASKSQDRKSASREKRSVVSFDKVKEPRKSRDSESHSRVRERSEREQRMQAQWEREERERLEIARERLAFQRQRLERERMERERLERERMHVEHERRREQERIHREREELRRQQELRYEQERRPAVRRPYDLDRRDDAYWPEAKRAALDERYHSDFNRQDRFHDFDHRDRGRYPDHSVDRREGSRSMMGEREGQHYPERHGGPERHGRDSRDGWGGYGSDKRMSEGRGLPPPPRRDWGDHGRREDDRSWQGTADGGMMDRDHKRWQGGERSMSGHSGPGHMMNRGGMSGRGSFAPGGASRGHPIPHGGMQGGFGGQSRGSRPSDARFTRRY
B3: PREP_HUMAN (protein, UniProt Q5JRX3 29-1037, looked up)
Presequence protease, …: NSNRACERALQYKLGDKIHGFTVNQVTSVPELFLTAVKLTHDDTGARYLHLAREDTNNLFSVQFRTTPMDSTGVPHILEHTVLCGSQKYPCRDPFFKMLNRSLSTFMNAFTASDYTLYPFSTQNPKDFQNLLSVYLDATFFPCLRELDFWQEGWRLEHENPSDPQTPLVFKGVVFNEMKGAFTDNERIFSQHLQNRLLPDHTYSVVSGGDPLCIPELTWEQLKQFHATHYHPSNARFFTYGNFPLEQHLKQIHEEALSKFQKIEPSTVVPAQTPWDKPREFQITCGPDSFATDPSKQTTISVSFLLPDITDTFEAFTLSLLSSLLTSGPNSPFYKALIESGLGTDFSPDVGYNGYTREAYFSVGLQGIAEKDIETVRSLIDRTIDEVVEKGFEDDRIEALLHKIEIQMKHQSTSFGLMLTSYIASCWNHDGDPVELLKLGNQLAKFRQCLQENPKFLQEKVKQYFKNNQHKLTLSMRPDDKYHEKQAQVEATKLKQKVEALSPGDRQQIYEKGLELRSQQSKPQDASCLPALKVSDIEPTIPVTELDVVLTAGDIPVQYCAQPTNGMVYFRAFSSLNTLPEELRPYVPLFCSVLTKLGCGLLDYREQAQQIELKTGGMSASPHVLPDDSHMDTYEQGVLFSSLCLDRNLPDMMQLWSEIFNNPCFEEEEHFKVLVKMTAQELANGIPDSGHLYASIRAGRTLTPAGDLQETFSGMDQVRLMKRIAEMTDIKPILRKLPRIKKHLLNGDNMRCSVNATPQQMPQTEKAVEDFLRSIGRSKKERRPVRPHTVEKPVPSSSGGDAHVPHGSQVIRKLVMEPTFKPWQMKTHFLMPFPVNYVGECIRTVPYTDPDHASLKILARLMTAKFLHTEIREKGGAYGGGAKLSHNGIFTLYSYRDPNTIETLQSFGKAVDWAKSGKFTQQDIDEAKLSVFSTVDAPVAPSDKGMDHFLYGLSDEMKQAHREQLFAVSHDKLLAVSDRYLGTGKSTHGLAILGPENPKIAKDPSWIIQ

System: KDM4A-I71AzF
Test: CASI: photo-crosslinking with HEK293T cell extracts, StrepTactin enrichment and LC-MS/MS proteomics;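 note: lysates from HEK293T cells pretreated with a KDM4 inhibitor to raise proteome methylation, affinity-purified after ±UV, gel-resolved, trypsin-digested, with exclusive unique peptides per protein averaged per condition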
Format: binding, human
Conditions: sheet "Final results but with 0.01"

Molecule	Fold change (+UV/-UV)
B1	0.3333
B2	0.5
B3	0.2
